Data set [1] deals with T1, GzmB peptide substrate AIEFDSGc on PEG-coated iron oxide nanoparticles (GzmB-sensing synthetic biomarker).
T1 chain: AIEFDSGC

Data set [2] concerns GzmB peptide substrate AIEFDSGc on PEG-coated iron oxide nanoparticles (GzmB-sensing synthetic biomarker). The source holds these as a separate data set.

Read-outs that look alike come from different tables or passages of the source.

B1: murine Granzyme B (recombinant, Peprotech) (protein)
chain: IIGGHEVKPHSRPYMALLSIKDQQPEAICGFLIREDFVLTAAHCEGSIINVTLGAHNIKEQEKTQQVIPMVKCIPHPDYNPKTFSNDIMLLKLKSKAKRTRAVRPLNLPRRNVNVKPGDVCYVAGWGRMAPMGKYSNTLQEVELTVQKDRECESYFKNRYNKTNQICAGDPKTKRASFRGDSGGPLVCKKVAAGIVSYGYKDGSPPRAFTKVSSFLSWIKKTMKSS
Consider B1, for which, in data set [1], the “fluorescent intensity (in vitro protease cleavage assay)” value (from here on “fluorescent intensity”) is listed as “Increases in fluorescent intensity were observed only in samples containing recombinant GzmB”; the kcat/KM entry is “Fitted kcat/KM was 1.09×10^4 M^-1s^-1”; the “rate of cleavage (initial cleavage velocity, fluorescence)” value was “the substrate that produced the highest rate of cleavage by recombinant GzmB”.

B2: Cls (Sigma) (enzyme, UniProt P09871 16-688, looked up, species assumed)
Complement C1s subcomponent: EPTMYGEILSPNYPQAYPSEVEKSWDIEVPEGYGIHLYFTHLDIELSENCAYDSVQIISGDTEEGRLCGQRSSNNPHSPIVEEFQVPYNKLQVIFKSDFSNEERFTGFAAYYVATDINECTDFVDVPCSHFCNNFIGGYFCSCPPEYFLHDDMKNCGVNCSGDVFTALIGEIASPNYPKPYPENSRCEYQIRLEKGFQVVVTLRREDFDVEAADSAGNCLDSLVFVAGDRQFGPYCGHGFPGPLNIETKSNALDIIFQTDLTGQKKGWKLRYHGDPMPCPKEDTPNSVWEPAKAKYVFRDVVQITCLDGFEVVEGRVGATSFYSTCQSNGKWSNSKLKCQPVDCGIPESIENGKVEDPESTLFGSVIRYTCEEPYYYMENGGGGEYHCAGNGSWVNEVLGPELPKCVPVCGVPREPFEEKQRIIGGSDADIKNFPWQVFFDNPWAGGALINEYWVLTAAHVVEGNREPTMYVGSTSVQTSRLAKSKMLTPEHVFIHPGWKLLEVPEGRTNFDNDIALVRLKDPVKMGPTVSPICLPGTSSDYNLMDGDLGLISGWGRTEKRDRAVRLKAARLPVAPLRKCKEVKVEKPTADAEAYVFTPNMICAGGEKGMDSCKGDSGGAFAVQDPNDKTKFYAAGLVSWGPQCGTYGLYTRVKNYVDWIMKTMQENSTPRED
For B2, the “fluorescent intensity” value in data set [2] is on record as “Increases in fluorescent intensity were observed only in samples containing recombinant GzmB”.

B3: mouse plasmin (HaemTech) (protein)
chain: VYLSECKTGIGNGYRGTMSRTKSGVACQKWGATFPHVPNYSPSTHPNEGLEENYCRNPDNDEQGPWCYTTDPDKRYDYCNIPECEEECMYCSGEKYEGKISKTMSGLDCQAWDSQSPHAHGYIPAKFPSKNLKMNYCRNPDGEPRPWCFTTDPTKRWEYCDIPRCTTPPPPPSPTYQCLKGRGENYRGTVSVTVSGKTCQRWSEQTPHRHNRTPENFPCKNLEENYCRNPDGETAPWCYTTDSQLRWEYCEIPSCESSASPDQSDSSVPPEEQTPVVQECYQSDGQSYRGTSSTTITGKKCQSWAAMFPHRHSKTPENFPDAGLEMNYCRNPDGDKGPWCYTTDPSVRWEYCNLKRCSETGGSVVELPTVSQEPSGPSDSETDCMYGNGKDYRGKTAVTAAGTPCQGWAAQEPHRHSIFTPQTNPRAGLEKNYCRNPDGDVNGPWCYTTNPRKLYDYCDIPLCASASSFECGKPQVEPKKCPGRVVGGCVANPHSWPWQISLRTRFTGQHFCGGTLIAPEWVLTAAHCLEKSSRPEFYKVILGAHEEYIRGLDVQEISVAKLILEPNNRDIALLKLSRPATITDKVIPACLPSPNYMVADRTICYITGWGETQGTFGAGRLKEAQLPVIENKVCNRVEYLNNRVKSTELCAGQLAGGVDSCQGDSGGPLVCFEKDKYILQGVTSWGLGCARPNKPGVYVRVSRFVDWIEREMRNN
Take B3: the “fluorescent intensity” value in data set [1] is “Increases in fluorescent intensity were observed only in samples containing recombinant GzmB”.

B4: Clr (Sigma) (enzyme, UniProt P00736 18-705, looked up, species assumed)
Complement C1r subcomponent: SIPIPQKLFGEVTSPLFPKPYPNNFETTTVITVPTGYRVKLVFQQFDLEPSEGCFYDYVKISADKKSLGRFCGQLGSPLGNPPGKKEFMSQGNKMLLTFHTDFSNEENGTIMFYKGFLAYYQAVDLDECASRSKSGEEDPQPQCQHLCHNYVGGYFCSCRPGYELQEDTHSCQAECSSELYTEASGYISSLEYPRSYPPDLRCNYSIRVERGLTLHLKFLEPFDIDDHQQVHCPYDQLQIYANGKNIGEFCGKQRPPDLDTSSNAVDLLFFTDESGDSRGWKLRYTTEIIKCPQPKTLDEFTIIQNLQPQYQFRDYFIATCKQGYQLIEGNQVLHSFTAVCQDDGTWHRAMPRCKIKDCGQPRNLPNGDFRYTTTMGVNTYKARIQYYCHEPYYKMQTRAGSRESEQGVYTCTAQGIWKNEQKGEKIPRCLPVCGKPVNPVEQRQRIIGGQKAKMGNFPWQVFTNIHGRGGGALLGDRWILTAAHTLYPKEHEAQSNASLDVFLGHTNVEELMKLGNHPIRRVSVHPDYRQDESYNFEGDIALLELENSVTLGPNLLPICLPDNDTFYDLGLMGYVSGFGVMEEKIAHDLRFVRLPVANPQACENWLRGKNRMDVFSQNMFCAGHPSLKQDACQGDSGGVFAVRDPNTDRWVATGIVSWGIGCSRGYGFYTKVLNYVDWIKKEMEEED
In the case of B4, the “fluorescent intensity” value in data set [2] is listed as “Increases in fluorescent intensity were observed only in samples containing recombinant GzmB”.

These data come from patent publication US20190345534.
